Data reported in publication PMC6391317.

Assays:
[1] = molecular target: T1, thrombin (alpha-thrombin) (human, UniProt P00734;P00734 328-363;364-622); experiment: capillary electrophoresis; simulated body plasma ionic buffer (SBP); exosite II; CE: 400 nM thrombin + 100 nM fluorescein-labeled aptamer in simulated body plasma ionic buffer (SBP; composition and pH not given in the material), 37 C for 2 m
[2] = molecular target: T1, thrombin (alpha-thrombin); experiment: capillary electrophoresis; simulated body plasma ionic buffer (SBP); exosite I; CE: 400 nM thrombin + 100 nM fluorescein-labeled aptamer in simulated body plasma ionic buffer (SBP; composition and pH not given in the material), 37 C for 2 m

Row | Binder | Kd [1] | Kd [2]
1 | AGTCCGTGGTAGGGCAGGTTGGGGTGACT (structured_DNA) [HD22] | 97.6 nM | –
2 | GGTTGGTGTGGTTGG (structured_DNA) [HD1] | – | 258 nM
